Source: a protein production outcome set (Wang et al. 2014)

Assay: label from the status in PepcDB records
In the case of “MWWWSSSTKGRSNLERFLLGITPKPPSFSLPQEQGKEEIEYFRLGDLWDCYDEMSAYGFGTQVDLNNGETVMQYYVPYLSAIQIHTNKPALLSRNQNEVAESESSEGWSDSESEKLLSRSMSNDSSKTWDAVSEDSVFDPDGSPLLKDRLGNLDFKYIERDPPHKRIPLTDKINVLVEKYPGLMTLRSVDMSPASWMAVAWYPIYHIPTCRNEKDLTTGFLTYHTLSSSFQDNVVEGDQSNNNEETEFCEDSVINKRMPLPPFGVTTYKMQGDLWGKTGFDQDRLLYLQSAADSWLKQLNVDHHDYNFFLNSSF”, the protein production was “failed”. With “MYANKVKKIAAVHDLSGMGRVSLTVVIPILSSMGFQVCPLPTAVLSNHTQYPGFSFLDLTDEMPKIIAEWKKLEVQFDAIYTGYLGSPRQIQIVSDFIKDFRQPDSLIVADPVLGDNGRLYTNFDMEMVKEMRHLITKADVITPNLTELFYLLDEPYKADSTDEELKEYLRLLSDKGPQVVIITSVPVHDEPHKTSVYAYNRQGNRYWKVTCPYLPAHYPGTGDTFTSVITGSLMQGDSLPMALDRATQFILQGIRATFGYEYDNREGILLEKVLHNLDMPIQMASYELI” the protein production was “not failed”. In the case of “MYDMLKFEFSDRFLLFSYFVLIMFIGSLLLMLPISWEGDGKLAYIDALFTAVSAVSITGLTTVKMEGFSTFGFILIMLLIQLGGLGFISITTFYLLIPKKKMNLTDARIIKQYSLSNIEYNPIRILKSILFITFSIEMIGLILILICFKLRGVNISFLEALFTTISAFCNAGFSMHSESIYAWRDVPEAIVVVSILIICGGLGFMVYRDVNNTIKNKKKLSLHAKIVFSLSFFLIIIGAILFFFTEMHKLKAGYSMSTLIFNSIFYSISTRTAGFNYLDNSLISGRTQIISLPFMFIGGAPGSTAGGIKITTFFLIVLAVVKNQNGNGYIIGSYKVSIDSIRFALLFFARAIFILSFSFFMLLFFEGGSGNWKVIDLGYEVFSAFGTVGLSVGVTQDLSFWGKVIIIFTMFAGRIGLFSMAVFVSRKSRFEEFTRPRQDILVG”, the protein production was “failed”. In the case of “MYDYSILPNRIILCVDLRSFYASVSCIKMGLDPMHTKLAVVGDVNRNGSIVLAATPPLKALGVKKMARLYEIPRRKDILVVNPIMSTYIKCSNYITKLALQYVPIEDFHQYSIDEFFMDITDSIHLFAQDPYEFAMKFKREIYDHTRIECTIGIAPNPLMSKVALDIEAKKNKDGIAFWQYEDIPTKLWSIRPLNKFWGISYKTEEKLNRKGIYSIGDLANYPLKYLKQSFGKIGEELHLHSHGIDFSRISEKYVPATTSIGKSQILMRDYTIEEFPIILLEHIEEVCYRLRRQTKLAQTIHFSVGYSKSYTGGIRKTHTLNRPTNLTMDIYHICTYFLHQQYTGEPIRSINISLTNLIQEGEEQISLFDNVTKREQEMKLTKVMDEIRTKFGKNSILRGISYTHSATARHRNTLIGLEHHHHHH”, the protein production was “failed”. For “MYEITATIVTYKNPDSVLLKAINSFLNTKLEVRLYIIDNSPTDYLKDISYDPRVEYIFMNSNNGFGAGHNVILRDPEKMGKYHLILNPDISFEEGTLEKLYDYMEGKLDVGNVMPKVIYPNGELQYLCKLLPTPKDWIVRMFLPIKSIKNRIDYNFEMKFADYDREMNIPYLSGCFMFLRKSVIEGIGVFDEGIFMYGEDTDLNRRIYRKYKTMYYPQVTITHHFEKGSHKSLRLLWIHVKAAIYYLNKWGWFFDKERSIINITVKQQYIRKLEHHHHHH”, the protein production was “not failed”. In the case of “MYELYTLLAEYYDTIYRRRIERVKAEIDFVEEIFKEDAKREVRRVLDLACGTGIPTLELAERGYEVVGLDLHEEMLRVARRKAKERNLKIEFLQGDVLEIAFKNEFDAVTMFFSTIMYFDEEDLRKLFSKVAEALKPGGVFITDFPCWFYGGRDGPVVWNEQKGEEKLVIMDWREVEPAVQKLRFKRLVQILRPNGEVKAFLVDDELNIYTPREVRLLAEKYFEKVKIYGNLKRELSPNDMRYWIVGIAKSF”, the protein production was “not failed”. In the case of “MYFCGIQNSTRTKGMNKAKSTMKLFGLIGLLILWNCSCVDRHRSHALCEQSLIDSLEVRAQDSLFSNLPYSRSLLRNAMRQAQDSMSYYRLMGLYGKTFFISSDFDSILYYNRPVKEYDKRAAACPRWNDVLSDVYNIEGNVWMQLNQPDSAVAYYEKSYAYRLKGEKGHLLSDICMNLADAHLHRGELAHTASYYRKALFICDSLHLSEHSKFPVYCGLGQTYMDLRDFDLSNHYYELAGQFFDEMTVSEKWVYLNNRGNHYYYKKDYQEALVYMRQAAELIADYPQMVFESNLSKVNLGDLYLLTNRLDSAENNLNEGYRYFSEIKNNSAMHYIETLMIELFLKKGNIARAREMIARTASTGHVDANMLTIRNQYLQHYYEKAGDYRNAYEYLKRDYQLNDSIRSERIRTRVAELDMRYRQDTIVLRKEMQIQRQAGEVRVLKLSMYIWVLVCLLLAAGTVVIIWYMRKKREFLRERFFQQINRVRMENLRSRISPHFTFNVLGREINQFNGSEEVKNNLMELVKYLRRSLELTEKLSVSLQDELDFVQSYIGLESGRVGEDFTASVVVEEGLDAKSIMIPSMIVQIPVENAIKHGLAGKDGEKELTIRISREGKGVRIVICDNGRGYLPQVASSTRGTGTGLKVLYQTIQLLNTKNKNEKIRFNIGNRNDGQTGTQVSVYIPFHFSYDL”, the protein production was “failed”. For “MYFGQNEACKKNHVVIHNELGPGIDLNIACRQFSIERTPSMFHTLKYKDPFYIIEFEDNNQLPHGERWYCLLSHGTRPKYWYDIEVYRQGYYPSCGQLRSWIAKQDGIWFTRRYDSPPGHVLNWKIQ”, the protein production was “failed”. In the case of “MYFLYVGIFGALGGMCRYAMNLWLGGGDFPSATLAVNLIGCFLLAFIMPFLAEKSRISLVLLNGIGTGFIGAFTTFSAFSVDTIELLQQGEVVLAISYILVSLIGGLVMVKFGRRFSNKLLRRGAHHVD”, the protein production was “failed”. In the case of “MYINKFVPVYTLLILIYSFNASAEWTGDNTNAYYSDEVISELHVGQIDTSPYFCIKTVKANGSGTPVVACAVSKQSIWAPSFKELLDQARYFYSTGQSVRIHVQKNIWTYPLFVNTFSANALVGLSSCSATQCFGPK”, the protein production was “failed”. For “MYIPNAFRESDTHNLQEHMDKTRLAILVTQGDDGLHATHLPLLLRSDEGPYGTLYGHMAKANPQWQQLNADAEAMVIFPGEDAYVSPSFYPSKAEHGKVVPTWNYLAVHAYGQAECFTDPDRLHQLLNDLTDRHESSRAQPWSINDAPADYIAKMLGAIVGFSIPVQRLQGKRKLSQNRSAEDMAGVRDGLGASHLANDQQIARLMSGWRPS”, the protein production was “not failed”. With “MYKIVSDSACDLSKEYLEKHDVTIVPLSVSFDGETYYRDGVDITRDECYQRMVDDPKLFPKTSLPSVESYADVFRSFVEQGFPVVCFTITTLFSGSYNSAINAKSLVLEDYPDANICVIDSKQNTVTQALLIDQFVRMLEDGLSFEQAMSKLDALMASARIFFTVGSLDYLKMGGRIGKVATAATGKLGVKPVIIMKDGDIGLGGIGRNRNKLKNSVLQVAKKYLDENNKDNFIVSVGYGYDKEEGFEFMKEVESTLDVKLDSETNVAIGIVSAVHTGPYPIGLGVIRKYETL” the protein production was “not failed”. In the case of “MYKKLILLFFILITFNLFSDEDVLVFYSQPSSIASKFVTGILQDSYGRIWFGTKEGLAYYDGIKYKNYEYIPFSKDSIQSSQIQCLYNDPRKAENGSDVFWIGTFYGVERFNVDTETFTHFDMTSSVVLCFLRDSHGRLWIGTLDGLYILNEDDGSVVKFSQASEFYIGNNGISHIYEDSEGRIYACTHEGLWEYDEPNKRFRRSRLFEKNSAVTDSIINNIFEEDGIYWVSVWDTGLFRIDPKNGKRDLFSFSNNKITCLSNEFSDNVLLIGTWGGGLISFDKNTYSYTEYTSKQRSYNLSNDFIFSIYVDTYGSLWVGTNGGGVNIYDTKRMWSKLILPHENKIDGRENSVSGLTKDKNGNLWISLLNNGITYYDLSTGKKKYYRYSESKIISNSVFKFYIDKNEDIWVGTDLGLCKYDKKKDAFVGVNLYNDNIIEDGERLIYNIISDDNEFLWIGTYDGGLIKFSPSSGILKRYKNDPKNPNSICSNLVFSLLIDSYKRLWVGTNKGLAEYKPSTDEFAIYRYDVNNRKGISSDRITSLFQDVSGKLWIGTSDGGINIFDTEKKEALNYTANEGLPANFIIGMTHMDNHSICVTAIKGMTIFNKDTEIIYSYTLYNHERRFTTVPIMIGDQCFVGTQEGVLGMDINYLLSFKRQEVPVKIRTIGINGNQTPVFKIDLQKTYKYKYSENNISFEFSSMDLSPLSRPSYIFMLEGFDKNWINANMKNYVQYTNLKPGKYTFKVKDISNPYPEPTSFTFIIEKPFWLSTPMIAVYILIFAGLTFLACRINRLFQYKIANKKLQQEQKDLISANEQLTVLSTVDELTGVGNRRQLDTVGKDLWRRGLDNKQPISLIMIDIDLFKQYNDLYGHQAGDNVLRTVAQTLQKKLRAKYDFVGRYGGEEFLVLLYNSSASETMKIAEKLRIEIKNLNIEHSAEKDKILTISLGAYTSVPNNELSYETMLSFADSALYKAKESGRDICKMYTE”, the protein production was “failed”. With “MYKKNLMKLLPAVAVIIAIAAAGFQQDSEVKSTKTVQAAENELIKSDELTSLLTTAYFNDGGMKDTDEADSSILKTKKSKSKIKKAGITTGKTKALPEKSAAASGQGQGTTTTPTTSVPKGGYKDGIYQGSGTGFGGTITVQVTISGGKIASIEILSAAGETGSYFASAKGVISKMISGQTPNVDAVSGATYSSNGIIQAVQNALSKAGKGKAAKTTKKTTKKNTNTSNKTTIPVEITKPSGEVTYKDGMYTAEAEGFDGPIKVTVTIKDGKITAITNTNTDTKEYFNKAWNSIQPKILEKQAVYGVDTVIGATFSSNGILKAVQKALEQASVNVTPAPEVTVSPTPVPTTAPAPVIPDTPKVLYNDGTYTGTGIGYGGKINISVTIKDGIITEVSQTNEGETPRYFRNAWNVIQPAIIAKQSTDGIDTVSGATYSSEGILYGAKSALEQALKTSDITATPTPNPTATPEPTAAPEPTAAPEPTAAPEPTAAPEPTATPEPTATPEPTATPEPTTAPGAGYKDGSYTGTGEGFNGQVTVTINVSGGNIVSAGYDGEDDEPEFSNAWNGIYNQIMGKQSADGIDTVTDATYSSNGLIQAFQSAISQAK” the protein production was “failed”. For “MYKLDHLNHNTLDESSLELHETPKGYTNVALFGLDSRDGELSGGVRSDSIMIVSINNKTGDVKIISVYRDTLLKQQDGSYEKANAAYSFGGPQEAVAMLNRNLDLDITKYASVNFNSLADIIDILGGVEVELTSEEIFWLNGYTAETSQVVGRQTHTLDENSPGVHNLDGIQAVSYTRIRYTAGDDFKRAERQRIILQKMIQKLKTAGPVKWNKILDQVLPEISTNMTTPDIMKLGLNIFRYKIGETKGFPFDITTSENVIGLEGSYAVAIGHADNVRQLHEQLFGETGYQPSDEVQQISQDVAYLTGVLEHHHHHH”, the protein production was “not failed”. For “MYKLMIADDEPLIRRGIKQLIDLSSLQIGEIYEASTGEEALKVFEEFKPEIVLMDINMPKIDGLSVAKKIKSINPDTKIAIITGYNYFDYAQTAIKIGVEDYILKPISKSDVSEIIVKLVSSLQKERKDKEIEKVLEKITTVDTQDNIAKNNYKELIQNIIEESYTDSQFTLSVLSEKLDLSSGYLSIMFKKNFGIPFQDYLLQKRMEKAKLLLLTTELKNYEIAEQVGFEDVNYFITKFKKYYQITPKQYREMVLKNENE”, the protein production was “not failed”. With “MYKSPLTLLTLLTICFGFFDLSSALYGSSSPVVQLTASNFKSKVLNSNGVVLVEFFAPWCGHCKALTPTWEKVANILKGVATVAAIDADAHQSAAQDYGIKGFPTIKVFVPGKAPIDYQGARDAKSIANFAYKQIKGLLSDRLEGKSKPTGGGSKEKKSEPSASVELNASNFDDLVIESNELWIVEFFAPWCGHCKKLAPEWKRAAKNLQGKVKLGHVNCDVEQSIMSRFKVQGFPTILVFGPDKSSPYPYEGARSASAIESFASELVESSAGPVEVTELTGPDVMEKKCGSAAICFISFLPDILDSKAEGRNKYLEMLLSVAEKFKKQPYSFMWVAAVTQMDLEKRVNVGGYGYPAMVAMNVKKGVYAPLKSAFELQHLLEFVKDAGTGGKGNVPMNGTPEIVKTKEWDGKDGELIEEDEFSLDELMGGDDAVGSKDEL” the protein production was “failed”. In the case of “MYKVGIVLFDDFTDVDFFLMNDLLGRTSDSWTVRILGTKPEHHSQLGMTVKTDGHVSEVKEQDVVLITSGYRGIPAALQDENFMSALKLDPSRQLIGSICAGSFVLHELGLLKGKKLTTNPDAKAVLQGMGGDVQDLPLVIEGNIATAGGCLSLLYLVGWLAERLFDSVKRKQIQNQLIPAGQMEIFETLISETIQSAESAYEYRSACESDAESLVV”, the protein production was “not failed”.
